What was measured:
Test in all cases: intrinsic tryptophan fluorescence titration; no ATP; Fluorescence titration (ex 295 nm, em 340 nm), one-site saturation fit; buffer, salt, pH and temperature not given in the material. Wild-type ADAAD Kd values are cited from ref 24 and not listed
Settings in all cases: protein: recombinant; tags: His (Ni-NTA, pET-14b); hairpin
ADAAD R595H = molecular target: T1, ADAAD R595H (Bos taurus (bovine), UniProt Q9TTA5 221-940, R815H)
T1 sequence: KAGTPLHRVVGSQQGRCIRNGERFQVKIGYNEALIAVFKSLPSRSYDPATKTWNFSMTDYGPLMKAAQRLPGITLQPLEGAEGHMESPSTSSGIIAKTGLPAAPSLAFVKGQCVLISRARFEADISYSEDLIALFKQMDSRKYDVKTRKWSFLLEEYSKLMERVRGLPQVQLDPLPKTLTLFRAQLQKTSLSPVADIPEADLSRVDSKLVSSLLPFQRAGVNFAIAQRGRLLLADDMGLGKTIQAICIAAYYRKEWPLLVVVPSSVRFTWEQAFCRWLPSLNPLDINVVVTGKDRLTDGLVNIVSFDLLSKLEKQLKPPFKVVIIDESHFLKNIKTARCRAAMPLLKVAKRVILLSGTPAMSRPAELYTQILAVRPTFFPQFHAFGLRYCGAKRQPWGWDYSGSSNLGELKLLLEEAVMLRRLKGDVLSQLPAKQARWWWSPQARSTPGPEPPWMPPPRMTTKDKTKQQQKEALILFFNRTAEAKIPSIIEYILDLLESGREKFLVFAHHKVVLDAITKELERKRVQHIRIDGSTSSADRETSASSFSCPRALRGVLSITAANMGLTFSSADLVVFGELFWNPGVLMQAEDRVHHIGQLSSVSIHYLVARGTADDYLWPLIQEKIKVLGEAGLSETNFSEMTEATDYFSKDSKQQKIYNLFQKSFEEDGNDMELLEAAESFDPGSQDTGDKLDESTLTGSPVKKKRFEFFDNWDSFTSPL

ADAAD T560A = molecular target: T2, ADAAD T560A (Bos taurus (bovine), UniProt Q9TTA5 221-940, T780A)
T2 sequence: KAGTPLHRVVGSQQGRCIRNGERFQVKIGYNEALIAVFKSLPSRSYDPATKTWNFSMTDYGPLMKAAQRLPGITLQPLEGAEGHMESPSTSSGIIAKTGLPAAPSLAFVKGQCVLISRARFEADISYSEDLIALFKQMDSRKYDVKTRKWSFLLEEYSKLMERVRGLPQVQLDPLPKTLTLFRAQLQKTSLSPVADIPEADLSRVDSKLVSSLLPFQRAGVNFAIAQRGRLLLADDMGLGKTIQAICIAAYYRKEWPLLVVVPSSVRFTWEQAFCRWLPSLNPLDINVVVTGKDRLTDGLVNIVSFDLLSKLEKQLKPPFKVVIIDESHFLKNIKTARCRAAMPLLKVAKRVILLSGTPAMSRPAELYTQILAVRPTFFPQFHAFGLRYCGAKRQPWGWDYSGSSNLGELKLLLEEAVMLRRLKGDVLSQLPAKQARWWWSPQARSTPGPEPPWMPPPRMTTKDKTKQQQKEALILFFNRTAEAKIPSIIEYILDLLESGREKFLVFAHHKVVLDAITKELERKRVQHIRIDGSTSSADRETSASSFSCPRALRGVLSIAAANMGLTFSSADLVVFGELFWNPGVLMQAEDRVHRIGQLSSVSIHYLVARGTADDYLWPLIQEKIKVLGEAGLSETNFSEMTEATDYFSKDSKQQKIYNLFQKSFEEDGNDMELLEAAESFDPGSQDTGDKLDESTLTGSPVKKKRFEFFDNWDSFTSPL

ADAAD F507A/R592A = molecular target: T3, ADAAD F507A/R592A (Bos taurus (bovine), UniProt Q9TTA5 221-940, F727A;R812A)
T3 sequence: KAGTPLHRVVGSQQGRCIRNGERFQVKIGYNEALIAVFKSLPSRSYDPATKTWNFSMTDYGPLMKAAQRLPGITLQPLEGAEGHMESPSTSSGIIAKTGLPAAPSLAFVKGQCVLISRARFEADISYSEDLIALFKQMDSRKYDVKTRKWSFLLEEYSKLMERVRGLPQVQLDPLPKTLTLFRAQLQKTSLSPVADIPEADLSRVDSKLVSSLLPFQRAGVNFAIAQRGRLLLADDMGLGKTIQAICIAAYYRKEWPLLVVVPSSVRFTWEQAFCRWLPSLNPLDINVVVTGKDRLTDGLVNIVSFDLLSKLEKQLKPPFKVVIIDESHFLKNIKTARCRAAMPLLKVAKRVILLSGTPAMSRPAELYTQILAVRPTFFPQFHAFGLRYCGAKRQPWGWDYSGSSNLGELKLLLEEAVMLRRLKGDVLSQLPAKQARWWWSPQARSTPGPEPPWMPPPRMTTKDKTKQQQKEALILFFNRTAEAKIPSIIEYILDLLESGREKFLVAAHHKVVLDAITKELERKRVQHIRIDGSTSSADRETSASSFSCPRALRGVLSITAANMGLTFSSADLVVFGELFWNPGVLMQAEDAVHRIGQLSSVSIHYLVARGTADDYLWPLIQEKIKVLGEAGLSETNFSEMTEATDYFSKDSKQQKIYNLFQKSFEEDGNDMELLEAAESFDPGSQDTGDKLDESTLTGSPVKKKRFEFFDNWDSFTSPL

B1: slDNA (stem-loop DNA) (structured_DNA)
DNA: GCGCAATTGCGCTCGACGATTTTTTAGCGCAATTGCGC
For B1, the Kd (ADAAD R595H) was 24.3 ± 6.1 nM, the Kd (ADAAD T560A) was 6.8 ± 0.6 nM and the Kd (ADAAD F507A/R592A) was 27.8 ± 3.6 nM.
